Experimental data reported in PMC9061257.

Molecular target: pseudouridine kinase from Escherichia coli strain B (EcPUKI), wildtype (E. coli strain B) (UniProt P30235)
Assay: SEC

pseudouridine kinase from Escherichia coli strain B (EcPUKI), wildtype (from UniProt P30235 1-313) (enzyme)
stoichiometry N: 2
